Source: PMC5473941
pKd: −log10 of the molar value.

Columns and labels:
[1] = biological target: microtubules polymerised from tubulin (biotinylated, Alexa 647-labelled, taxol-stabilised) (UniProt P02550); assay: single-molecule TIRF microscopy; biotinylated, Alexa 647-labelled, taxol-stabilised microtubules held on PLL-PEG-biotin/streptavidin glass; TMR-dynein at 0.29 and 0.58 nM in TAB (25 mM HEPES pH 7.2, 5 mM MgSO4, 1 mM EGTA, 1 mM DTT) with α-casein, 25 mM KCl and MgATP; room temperature; Kd estimated as Koff (reciprocal of the dwell time) over Kon (binding rate) times 802 binding sites per μm
[2] = biological target: human cytoplasmic dynein-1 heavy chain, wild type, as a subunit of the dynein complex (human) (UniProt Q14204); assay: electron microscopy of single particles; freshly purified protein produced in insect cells; how the proportion was counted is not told
[3] = biological target: human cytoplasmic dynein-1 heavy chain, wild type, as a subunit of the dynein complex (human) (UniProt Q14204); assay: negative stain EM with 2D classification; dynein at about 0.05 mg/ml in GF150, uranyl acetate; particles sorted into phi, open or ambiguous classes; mean and SEM of 9 draws of 25 micrographs

| Substance | pKd [1] | percent of molecules in the phi-particle (motor domains self-dimerised) [2] [%] | percent of molecules in the open form (motor domains apart) [3] [%] | percent of molecules in the phi-particle (motor domains self-dimerised) [3] [%] |
| --- | --- | --- | --- | --- |
| full-length human cytoplasmic dynein-1 complex with the phi-interface mutations K1610E and R1567E in the heavy chain (from UniProt Q14204 1-4646; Q13409 1-638; O43237 1-492; Q9NP97 1-96; P63167 1-89; P63172 1-113) | 5.28 |  |  |  |
| full-length human cytoplasmic dynein-1 complex, wild type (from UniProt Q14204 1-4646; Q13409 1-638; O43237 1-492; Q9NP97 1-96; P63167 1-89; P63172 1-113) | 4.79 |  |  |  |
| human cytoplasmic dynein-1 heavy chain, wild type, as a subunit of the dynein complex, Q14204 1-4646 |  | > 85 | 22 | 75 |
